# Columns and labels:
# [1] = target: complex of vitamin D binding protein with 25-hydroxyvitamin D3 (DBP:25(OH)D3) (human) (UniProt P02774); assay: MST, NT-647-labelled DBP (50 nM) with VD3 (50 nM), megalin fragment titrated
# [2] = target: vitamin D binding protein (DBP) alone, without added vitamin D metabolite (human) (UniProt P02774); assay: MST, NT-647-labelled DBP (50 nM), megalin fragment titrated, absence of 25-OH vitamin D3; microscale thermophoresis; NT-647-labelled DBP, purified soluble M1 titrated 0.488-1000 nmol/L; absence of 25-OH vitamin D3
# vitamin D binding protein (DBP) alone, without added vitamin D metabolite (human), sequence (P02774 17-474 limits assumed): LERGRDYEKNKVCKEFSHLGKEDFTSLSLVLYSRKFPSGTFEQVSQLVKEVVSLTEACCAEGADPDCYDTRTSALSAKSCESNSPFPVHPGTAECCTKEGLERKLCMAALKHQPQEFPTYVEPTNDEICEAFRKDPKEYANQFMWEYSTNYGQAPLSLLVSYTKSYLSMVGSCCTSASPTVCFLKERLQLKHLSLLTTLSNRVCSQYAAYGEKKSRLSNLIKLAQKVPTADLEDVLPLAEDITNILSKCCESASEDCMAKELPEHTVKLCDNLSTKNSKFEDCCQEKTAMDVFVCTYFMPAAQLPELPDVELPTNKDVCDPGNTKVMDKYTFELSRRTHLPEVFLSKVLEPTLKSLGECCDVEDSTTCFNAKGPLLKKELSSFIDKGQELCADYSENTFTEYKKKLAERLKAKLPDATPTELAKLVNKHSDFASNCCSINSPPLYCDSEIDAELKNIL
# complex of vitamin D binding protein with 25-hydroxyvitamin D3 (DBP:25(OH)D3) (human), sequence (P02774 17-474 limits assumed, one chain of several): as the sequence (P02774 17-474 limits assumed) above
substance,measurement,setting,value
"soluble recombinant megalin M1 fragment (amino acids 26 to 386 of human LRP2/megalin, C-terminal 6x His tag) (from UniProt P98164 26-386) (receptor)",Kd,[1],45.6 nM
same,Kd,[2],442 nM
